Experimental data reported in paper PMC9793359.

Experiments:
[1] = molecular target: Flag-tagged nsp8 of SARS-CoV-2 (SARS-CoV-2) (UniProt P0DTD1); test: co-IP
[2] = molecular target: Flag-tagged nsp7 of SARS-CoV-2 (SARS-CoV-2) (UniProt P0DTD1); test: co-IP

| Substance | decrease in co-precipitated complex against wild type [1] [%] | decrease in co-precipitated complex against wild type [2] [%] | increase in co-precipitated complex against wild type [1] [fold] | increase in co-precipitated complex against wild type [2] [fold] |
| --- | --- | --- | --- | --- |
| HA-tagged nsp12 T20A mutant (natural protein) | 33 | 33 |  |  |
| HA-tagged nsp12 T20E mutant (natural protein) |  |  | 2 | 2 |
